Reference: US20040229265A1
Blank lines part the entries; values can stand above or below the substance they belong to.

Columns and labels:
[1] = target: CXCR4 (chemokine receptor CXCR-4) on PM1 cells; experiment: flow cytometry, PE-conjugated isotype control on PM1 cells (non-specific fluorescence)
[2] = tested on: Rev peptide (Rev34-50, RhdRev) (HIV-1); experiment: FP; conditions: 10 nM tracer titrated with RNA, 85 mM NaCl, 2 mM KCl, 0.5 mM CaCl2, 0.5 mM MgCl2, 10 mM HEPES pH 7.5
Rev34-50 peptide (HIV-1) = conditions: CITED natural ligand affinity quoted for comparison, method not stated; cited from earlier work
Tat49-57 peptide (HIV-1) = conditions: CITED natural ligand affinity quoted for comparison, method not stated; cited from earlier work
[3] = target: CXCR4 (chemokine receptor CXCR-4) on PM1 cells; experiment: flow cytometry, PE-12G5 alone on PM1 cells, 30 min at 4° C.

Sequence of CXCR4 (chemokine receptor CXCR-4) on PM1 cells (P61073 whole entry): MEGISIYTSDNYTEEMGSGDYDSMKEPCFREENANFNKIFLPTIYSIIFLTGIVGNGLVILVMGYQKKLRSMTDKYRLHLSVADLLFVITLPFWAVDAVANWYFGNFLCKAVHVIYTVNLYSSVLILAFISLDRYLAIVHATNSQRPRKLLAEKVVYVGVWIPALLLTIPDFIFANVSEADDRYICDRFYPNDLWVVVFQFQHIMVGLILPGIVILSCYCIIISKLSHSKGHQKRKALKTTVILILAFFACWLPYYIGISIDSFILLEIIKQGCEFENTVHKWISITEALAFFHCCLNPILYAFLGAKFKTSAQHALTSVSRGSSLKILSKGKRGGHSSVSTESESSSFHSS

MFI (median fluorescence intensity) [1]: 30 MFI
Substance: PE-conjugated isotype control mAb (antibody)

Substance: RRE IIB RNA
Kd ([2]; text gives 16 nM): 16.6 nM | Kd (Rev34-50 peptide (HIV-1)): 40 nM

Substance: TAR RNA
Kd ([2]; table unit taken from text (7 nM)): 7.3 nM | Kd (Tat49-57 peptide (HIV-1)): 12 nM

MFI (median fluorescence intensity) [3]: 451 MFI
Substance: anti-CXCR4 mAb, 12G5 (PharMingen, San Diego, Calif.) conjugated to phycoerithrine (PE) (antibody)
